Test results reported in paper PMC6996796.
Where “and” joins values, the source holds several entries; their conditions need not be identical. Equal values may be shown once.

Target: branched K11/K48 triubiquitin (Homo sapiens) (UniProt P0CG48)
Assay: NMR
Conditions: modification not given

hHR23A UBA2 UBA2, P54725, sequence (P54725 315-361): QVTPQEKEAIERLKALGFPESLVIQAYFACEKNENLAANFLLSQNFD

Q: With hHR23A UBA2 UBA2, P54725 as the substance, how does the Kd read?
A: 26 µM and 248 µM
